The target in assay [1] is recombinant human soluble BAFF (human) (UniProt Q9Y275). The assay can be described thus: flow cytometry on JY cells, simultaneous binding assay, 200 ng biotinylated BAFF, BAFF channel FL-2 (PE). (In flow cytometry, cells or beads pass a laser one at a time.)
For assay [2] the target is unchanged. The assay can be described thus: flow cytometry on JY cells, simultaneous binding assay, 1000 ng biotinylated BAFF, BAFF channel FL-2 (PE).
Assay [3] has the same target. In words: flow cytometry on JY cells, simultaneous binding assay, 5000 ng biotinylated BAFF, BAFF channel FL-2 (PE).
Assay [4] addresses human CD20 (human) (UniProt P11836). In words: flow cytometry on JY cells, simultaneous binding assay, 0.32 ng biotinylated BAFF, CD20 channel FL-1.
The target in assay [5] is recombinant human soluble BAFF (human) (UniProt Q9Y275). The assay can be described thus: flow cytometry on JY cells, simultaneous binding assay, 0.32 ng biotinylated BAFF, BAFF channel FL-2 (PE).
Assay [6] addresses human CD20 (human) (UniProt P11836). In words: flow cytometry on JY cells, simultaneous binding assay, 200 ng biotinylated BAFF, CD20 channel FL-1.
The target is the same in assay [7]. In words: flow cytometry on JY cells, simultaneous binding assay, 5000 ng biotinylated BAFF, CD20 channel FL-1.
The target is the same in assay [8]. The assay can be described thus: flow cytometry on JY cells, simultaneous binding assay, 1000 ng biotinylated BAFF, CD20 channel FL-1.

Chain of recombinant human soluble BAFF (human) (Q9Y275 134-285 limits assumed): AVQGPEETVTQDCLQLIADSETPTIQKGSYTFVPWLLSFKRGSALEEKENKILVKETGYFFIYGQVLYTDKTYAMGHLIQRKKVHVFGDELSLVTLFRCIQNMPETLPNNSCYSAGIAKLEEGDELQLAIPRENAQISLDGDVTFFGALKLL
Chain of human CD20 (human) (P11836 whole entry): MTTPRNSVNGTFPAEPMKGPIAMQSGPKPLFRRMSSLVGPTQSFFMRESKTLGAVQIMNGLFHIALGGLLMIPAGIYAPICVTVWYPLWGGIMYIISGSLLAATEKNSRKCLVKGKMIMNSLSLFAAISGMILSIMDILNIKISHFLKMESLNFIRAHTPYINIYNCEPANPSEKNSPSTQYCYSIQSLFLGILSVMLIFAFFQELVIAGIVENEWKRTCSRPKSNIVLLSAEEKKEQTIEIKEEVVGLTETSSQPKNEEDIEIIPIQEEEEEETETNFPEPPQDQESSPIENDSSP

control human IgG1 antibody: the MFI in assay [1] worked out at 1.43 MFI; in assay [2], 1.3 MFI; in assay [3] it was 1.26 MFI; with human CD20 (human) [4], 9.8 MFI; in assay [5], 1.31 MFI; with human CD20 (human) [6], 18 MFI. In addition, the results for the MFI with human CD20 (human) [7] and with human CD20 (human) [8] were 8.5 MFI and 9.14 MFI, respectively.

These data come from patent US20160289342A1.
